In article doi:10.1101/2021.11.02.466875:
Like-named read-outs stand apart in the source and are kept apart here.

Key:
Experiment in all cases: BLI
[1] = biological target: RapC (Bacillus velezensis SQR9)
[2] = biological target: RapC (Bacillus velezensis SQR9); remark: listed apart in the source
[3] = biological target: RapC (Bacillus velezensis SQR9); remark: listed apart in the source
[4] = biological target: RapC (Bacillus velezensis SQR9); remark: listed apart in the source

Kd [1]: 0.00549 µM
Kd [2]: 0.0268 µM
Kd [3]: 0.0135 µM
Kd [4]: 0.00869 µM
Substance: ComA (natural protein)
